{
  "source": "FireProtDB (doi:10.1021/bi011146t)",
  "details": "Alicyclobacillus acidocaldarius subsp. acidocaldarius, pH 7.5, 20 °C, CD, sodium phosphate 20 mM, reversible: no",
  "data": [
    {"substance": "wild type (from UniProt Q7SIG1)", "values": [
      {"measurement": "denaturant m value", "setting": "GdnHCl", "value": 2.08, "unit": "kcal/mol/M"},
      {"measurement": "denaturant midpoint (higher = more stable)", "setting": "GdnHCl", "value": 1.9, "unit": "M"},
      {"measurement": "unfolding free energy", "setting": "GdnHCl", "value": 4.3, "unit": "kcal/mol"},
      {"measurement": "denaturant m value", "setting": "Urea", "value": 2.63, "unit": "kcal/mol/M"},
      {"measurement": "denaturant midpoint (higher = more stable)", "setting": "Urea", "value": 5.9, "unit": "M"},
      {"measurement": "unfolding free energy", "setting": "Urea", "value": 15.1, "unit": "kcal/mol"}
    ]}
  ]
}
